Measured values: publication PMC4368798, “Protein-Binding RNA Aptamers Affect Molecular Interactions Distantly from Their Binding Sites” (PLoS ONE, 2015)

Target: T1, Human uPAR (uPA receptor), recombinant (human, UniProt Q03405 23-305)
T1 construct: probably a soluble form without the GPI anchor (surmise)
Assay: SPR; uPAR coupled to the sensor surface (1000 RU, 15 ug/mL in 10 mM Na acetate pH 4.5); 4 nM purified uPA variant (pro-uPA, ATF or GFD) passed over with or without RNA aptamer; bound amount after 80 s injection
Conditions: both partners purified

T1 sequence (Q03405 23-305): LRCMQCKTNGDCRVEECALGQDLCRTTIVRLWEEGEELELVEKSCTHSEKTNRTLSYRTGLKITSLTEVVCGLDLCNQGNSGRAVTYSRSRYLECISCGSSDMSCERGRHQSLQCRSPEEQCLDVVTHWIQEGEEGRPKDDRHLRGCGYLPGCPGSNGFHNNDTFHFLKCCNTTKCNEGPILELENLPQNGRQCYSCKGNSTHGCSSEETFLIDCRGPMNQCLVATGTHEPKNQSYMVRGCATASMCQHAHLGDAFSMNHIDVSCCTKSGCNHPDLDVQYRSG

- binding result: binds
B1: GFD^4-43 domain of uPA (domain or fragment, human, UniProt P00749 24-63, looked up)
chain: LHQVPSNCDCLNGGTCVSNKYFSNIHWCNCPKKFGGQHCE
notes: human uPA epidermal growth factor-like domain, residues 4-43; numbers count on: the mature protein; also called growth factor domain; source: excised from recombinant pro-uPA by Glu-C digestion, purified by size exclusion chromatography
